In the nanobody polyreactivity screen of Harvey et al. (2022):

Test: yeast display, Sf9 membrane polyspecificity reagent, FACS + sequencing; frameworks hold sequencing errors
In short: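 Nanobodies came from a synthetic yeast display library in Saccharomyces cerevisiae BJ5465, induced with galactose for 36–48 hours and stained for 1 hour at 4 °C with 10% biotinylated, detergent-solubilized Sf9 membrane reagent. Cells were enriched on streptavidin microbeads and then FACS-sorted, with low and high (top ~1%) gates set on anti-HA fluorescence for expression and streptavidin fluorescence for reagent binding. Each polyreactivity label reflects the gate a clone came from. Genes were amplified by colony PCR, sequenced by MiSeq 2 × 250 and filtered by CDR length.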

Sequence: QVQLVESVGCLVQAGGSHRLSCAASVFIFGANAMGWYRQAPGKESELVAAIRWSSGTTYYADSVKGRFTISRDNAKNTVYLQINSLKPEDTAVYYCAAGGLARTWYAYYYWGQGTQVTVSS
- polyreactivity (PSR sort gate): low polyreactivity

Sequence: QVQLVESVGGIVQAGGSLRLSCAASGGICYEYAMGWYRQAPGKERELVATISFNVASTYADSVKGRFTISRDNAKNTVYLQMNSLKPEDTAVDYCIADTYWDRDSRYDYWGLGTQVTVSS
- polyreactivity (PSR sort gate): low polyreactivity

Sequence: QVQLVESVGGIVQAGGSLRLSCAASGRTFTYNVMGWYRQAPGKEMELVAAITSGGSNYADSVKGRFTISRDNAKNTVYLQMNSLTPEDTAGYYCATDYYEDVTIGYDYWGQGTQVTVSS
- polyreactivity (PSR sort gate): low polyreactivity

Sequence: QVQLVESVGGLDQAGGSLRLSCAASGSTFRYYVMGWYRQAPGKERELVAGITRGGSTNYADSVKGRFTISRENAKNTVYLQMNSLKPEDTAVYYCASRGGWKRPFGYQLQYDYWGQGTQLTVSS
- polyreactivity (PSR sort gate): high polyreactivity

Sequence: QVQLVESVGGLDQAGGSLRLSGAASGIIFEGNALGWYRQAPGKERELVAAITSRGTRTYYADSVKGRFTISRDHAKNTVYLQMNSLKPEDTAVYYCAKLTSVTGKSGRYGYEYWGQGTQVTVSS
- polyreactivity (PSR sort gate): high polyreactivity

Sequence: QVQLVESVGGLVQAGASLRLSCAPSGSTFPVYAMGWYRPAPGKESELVARISSGSSTNYADSVKGRFTISRDNAKITVYLQMNSLKPEDTAVYYCAAQTPRFVWQKGPLDSEDYWGQGTQVTVSS
- polyreactivity (PSR sort gate): high polyreactivity

Sequence: QVQLVESVGGLVQAGGILRLSCAPSGSTSYGNAMGWYRQAPAKVRELVAAISSSGSSTYYADSVKGRFTISRDNAKNTVYLQMNSLKPEDTAVYYCNKRRSHSYYSRRFDYWGQGTQVTVSS
- polyreactivity (PSR sort gate): high polyreactivity

Sequence: QVQLVESVGGLVQAGGSHRLSCAASGRTFYQYTMGWSRQAPGTERELVAAITTSTGNTYYADSVKVRFTISRDNAKNTVYLQMNRLKPADTAVYECAADTVWPLDYWGLGTQVTVSS
- polyreactivity (PSR sort gate): low polyreactivity

Sequence: QVQLVESVGGLVQAGGSIRLSCAASGRIIDVNAMGWYRQAPGKERELVAAIRSGGRTNYADSVKGRFTISRDNAKNTVYLQMNSLKPEDTAVYYCGAVVWSSLDDYWGQGTQVTVSS
- polyreactivity (PSR sort gate): high polyreactivity

Sequence: QVQLVESVGGLVQAGGSLPLSCAASGLTFPSYAMGWYRQAPGKERELVAAISASGSSTYYADSVKGRFTISRDNAKNTVYLQMNSLKPEDTAVYYCNARKPATVSRYGYWGQGTQVTVSS
- polyreactivity (PSR sort gate): high polyreactivity

Sequence: QVQLVESVGGLVQAGGSLRISCAASGRIFSGNAMGWYRQAPGKERELVASISRSGGRTRYADSVKGRFTISRDNAKNTVYLQMNSLKPEDTAVYYFTALSTQSYYFTYAGYDYWGQGTQVTVSS
- polyreactivity (PSR sort gate): high polyreactivity

Sequence: QVQLVESVGGLVQAGGSLRISCAASGSIFAVYAMGWYRQAPGKESELVAAITSSGGRTYYADSVKGRFTISRDNAKNTVYFQMNSLKPEDTAVYYSATRGDTRWGLDYWGQATQVTVSS
- polyreactivity (PSR sort gate): high polyreactivity

Sequence: QVQLVESVGGLVQAGGSLRISSAASGRIFTGNGMGWYRQAPGKERELVASITYNGGRTYYADSVKGRFTISRDNAKNTVYLQINSLKPEDTSVYYCNAGDYGFRYEYWGQGTQVTVSS
- polyreactivity (PSR sort gate): low polyreactivity

Sequence: QVQLVESVGGLVQAGGSLRLICAASGFTFRRNAIGWYRQAPGKERELVAAITRSGGITYYADSVKGRFTISRDNAKNTVYLQMNSLKPEDTAVYYCNKQVTGAERFQGHGAYYWGQGTQVTVSS
- polyreactivity (PSR sort gate): high polyreactivity

Sequence: QVQLVESVGGLVQAGGSLRLICAASGSTFTWYAIGWNRQAPGKERELVADITWRDGSTYYADSVKGRFTISRDNAKNTVYLQMNSLKPEDTAVYYCAADYTYWGIFFGYWGQGTQVTVSS
- polyreactivity (PSR sort gate): high polyreactivity

Sequence: QVQLVESVGGLVQAGGSLRLICDASGFTFYAYAIGWYRQAPGKERELVAAITYIGSTYYADSVKGRFTISRDNAKNTVYLQMNSLKPEETAVYYCAVEFLPSFNRYDYWGQGTQVTVSS
- polyreactivity (PSR sort gate): low polyreactivity

Sequence: QVQLVESVGGLVQAGGSLRLRCGASGSIFYIYAMGWYRHAPGNERELVAAITRRAATYADSVKGRFTISRDNAKKTGYLQMNSLKPEDTAVYYCNADVQRLGRYDYWGQGTQVTVSS
- polyreactivity (PSR sort gate): high polyreactivity

Sequence: QVQLVESVGGLVQAGGSLRLSCAASARIFRYYAMGWDRQAPGKERELVAAITWNGGSTYYADSVKGRFTISRDNAKNTVYVQLNSLKPEDTAVYYCAAVSYYTHYRLPYDYWGQGTQVTVSS
- polyreactivity (PSR sort gate): high polyreactivity

Sequence: QVQLVESVGGLVQAGGSLRLSCAASGFIFRGYALGWYRQARGKEWELVAAMNAGDSTNYADSVKGRFTISRDTAKNTVYLQMNSLKPEETAVYYCAASIYAALNGGPGYDYWGQGTQVTVSS
- polyreactivity (PSR sort gate): low polyreactivity

Sequence: QVQLVESVGGLVQAGGSLRLSCAASGFIFSVYAMGWNRQAPGKERELVAVISTSGGRTYYADSVKGRFTISRDNAKNTVYLQMNSLKPEDTAVDYCAADGFQYTLGNYYWGQGTQVTLSS
- polyreactivity (PSR sort gate): high polyreactivity

Sequence: QVQLVESVGGLVQAGGSLRLSCAASGFIFTLYTMGWYRHAPGKERELVADIDKNGSTYYADSVKGRFTISRDNAKITVYLRMYSLKPEDTAFYYCAADDRYRGNREDYWGQGTQVTVSS
- polyreactivity (PSR sort gate): low polyreactivity

Sequence: QVQLVESVGGLVQAGGSLRLSCAASGFTFGPYAMGWYRQSPGKERELVAPIDDSGGNTYYADSVKGRFTISRDNAKNTVYLQMNSLKQEDTAVYYCNAFGADYYHVYPAEDYWGQGNQVTVSS
- polyreactivity (PSR sort gate): low polyreactivity

Sequence: QVQLVESVGGLVQAGGSLRLSCAASGFTFPWNVMGRYRQAPGKERELVAAITYDGGGTYADSVKGRFTISRDNAKNTVYLQMNSLKPEDTAVYYCNADLINGEEYDYWGQGTQVTVSS
- polyreactivity (PSR sort gate): low polyreactivity

Sequence: QVQLVESVGGLVQAGGSLRLSCAASGFTFTRYAMGWYRQAPGKERELVAAISSGGDTYYADSVKGRFTISRDNAKNTVYLQMNSLKPEDTAVYYCAADQSSLDYGNDYWGQGTQVTVSS
- polyreactivity (PSR sort gate): low polyreactivity

Sequence: QVQLVESVGGLVQAGGSLRLSCAASGGIFNTYAMGWYRQAPGKEREFVAANSRRGGGTYYADSVKGRFTISRDNAKNTVYLQMNSLKPEDTAVYYCNADVKRGSRGYGSDHWGQGTQVTVSS
- polyreactivity (PSR sort gate): high polyreactivity

Sequence: QVQLVESVGGLVQAGGSLRLSCAASGGIFYKYAMGWYRQAPGNERELVAAITGRGGSTNYADSVKGRFTISRDNSKNTVYLQMNSLKPEDNAVYYCAADLRLYSSQDNDYWGQGTQVTVSS
- polyreactivity (PSR sort gate): low polyreactivity

Sequence: QVQLVESVGGLVQAGGSLRLSCAASGIIFARYAMGWYRQAPGKERELVASISWSTGNTYYADSVKGRFTISRDNAKNTVYLQMNSLKPEDTAVYYCAATYRRKYWTMDYWGQGTQVTVSS
- polyreactivity (PSR sort gate): high polyreactivity

Sequence: QVQLVESVGGLVQAGGSLRLSCAASGITFFGNAMGWYRQAPGKERELVASISNGDNTNYADSVKGRFTISRDNAKNTVYLQMNSLKPEDTAVYYCAAWLAYSSRYGYWGQGTQVSVSS
- polyreactivity (PSR sort gate): low polyreactivity

Sequence: QVQLVESVGGLVQAGGSLRLSCAASGITLYGYAMGWYRQAPGKERELVAAISWRGGRTYYADSVKGRFTISRDNAKNTVYVQMNSLKPEDTAVYYCLARSYYNWYDYWGQGTQVTVSS
- polyreactivity (PSR sort gate): high polyreactivity

Sequence: QVQLVESVGGLVQAGGSLRLSCAASGLIFPWYAMGWYRQAPGKERELVAAIRWRGGGTYYADSVKGRFTISRDNAKNTVYLQMNSLKPEDTAVYYCAARRPAKGMGYWGQGTQVTVSS
- polyreactivity (PSR sort gate): high polyreactivity

Sequence: QVQLVESVGGLVQAGGSLRLSCAASGNIFSSYAMGWYRQAPGKERELVARITTSAGRTYDADSVKGRFTISRDNAKNTVDLQMNSLKPEDTPVYYCAVDWYGSYGYGGSQNSDYWGQGTQVTVSS
- polyreactivity (PSR sort gate): high polyreactivity

Sequence: QVQLVESVGGLVQAGGSLRLSCAASGNTFRRNVMGLYRQAPGKERELVAAINRGGSTYYADSVKGRFTISRDNAKNTVYLQMNSLKPEDTAVYYCNAVTRGYYHEMEYWGQGTQVTVSS
- polyreactivity (PSR sort gate): high polyreactivity
